Literature values, collected in paper PMC12355045.

Target: hemoglobin αβ dimer (Homo sapiens) (UniProt P69905)

Kd: 1000 nM
Substance: hemoglobin αβ dimer (from UniProt P69905)
